pKd: −log10 of the molar value.
Tests used:
[1] = biological target: soluble CD4 (sCD4) (UniProt P01730); assay: SPR
[2] = biological target: soluble CD4 (UniProt P01730); assay: SPR
[3] = biological target: BG505 N332 SOSIP gp140 envelope trimer (unmutated BG505 SOSIP) (HIV-1 (clade A, BG505)); assay: negative-stain electron microscopy

“BG505 SOSIP.664 (unmutated BG505 N332 SOSIP gp140 trimer) (complex)” was tested. Which koff [1] did it give?
Its koff is 0.00061 s⁻¹.

And the kon [1]?
Its kon is 11200 M⁻¹ s⁻¹.

Which results are given for “BG505 N332 SOSIP gp140 envelope trimer (unmutated BG505 SOSIP) (complex)”?
pKd [2]: 7.17; stoichiometry N [3]: 3
